This note sets out measurements from paper PMC2542469 (The Journal of Cell Biology, 2008).

The assay has as its target T1, Full-length human histidine-tagged Ndel1 phosphorylated in vitro by both cdk5/p25 and cdk1/cyclin B (human, UniProt Q9GZM8 1-345).
T1 sequence: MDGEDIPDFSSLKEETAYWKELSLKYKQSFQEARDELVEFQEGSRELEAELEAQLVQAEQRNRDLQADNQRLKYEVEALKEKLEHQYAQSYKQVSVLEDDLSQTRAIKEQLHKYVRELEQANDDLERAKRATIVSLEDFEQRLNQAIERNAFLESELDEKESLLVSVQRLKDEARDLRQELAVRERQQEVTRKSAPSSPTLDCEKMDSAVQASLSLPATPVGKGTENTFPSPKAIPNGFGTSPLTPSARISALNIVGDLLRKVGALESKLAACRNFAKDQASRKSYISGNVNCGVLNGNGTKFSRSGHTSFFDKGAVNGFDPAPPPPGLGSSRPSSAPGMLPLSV
Put plainly: co-IP.

B1: Full-length Lis1, histidine tag cleaved (natural protein)
chain: MVLSQRQRDELNRAIADYLRSNGYEEAYSVFKKEAELDVNEELDKKYAGLLEKKWTSVIRLQKKVMELESKLNEAKEEFTSGGPLGQKRDPKEWIPRPPEKYALSGHRSPVTRVIFHPVFSVMVSASEDATIKVWDYETGDFERTLKGHTDSVQDISFDHSGKLLASCSADMTIKLWDFQGFECIRTMHGHDHNVSSVAIMPNGDHIVSASRDKTIKMWEVQTGYCVKTFTGHREWVRMVRPNQDGTLIASCSNDQTVRVWVVATKECKAELREHEHVVECISWAPESSYSSISEATGSETKKSGKPGPFLLSGSRDKTIKMWDVSTGMCLMTLVGHDNWVRGVLFHSGGKFILSCADDKTLRVWDYKNKRCMKTLNAHEHFVTSLDFHKTAPYVVTGSVDQTVKVWECR
For the molecule B1, the “fold more Lis1 pulled down than by unphosphorylated Ndel1” value is roughly 5 fold.
